Numbering of substitutions follows the chain as printed.
Assays:
[1] = molecular target: CD22 on the cell membrane of CD22-positive cell lines (Raji, REH, CA46) (UniProt P20273); assay: FACS on Raji cells
[2] = molecular target: Biotinylated Human Siglec-2/CD22 Protein, Fc, Avitag (ACROBiosystems, SI2-H82F8) (human) (UniProt P20273); assay: ELISA, plate coated with CD22-Fc antigen; fit of a non-binding control (R2 0.1733), not meaningful
[3] = molecular target: CD22 on the cell membrane of CD22-positive cell lines (Raji, REH, CA46) (UniProt P20273); assay: FACS on CA46 cells; ambiguous fit, Top printed as (very wide)
[4] = molecular target: CD22 on the cell membrane of CD22-positive cell lines (Raji, REH, CA46) (UniProt P20273); assay: FACS on REH cells; ambiguous fit, Top printed as (very wide)
[5] = molecular target: T1, CD22 on the cell membrane of CD22-positive cell lines (Raji, REH, CA46) (UniProt P20273 20-847, limits assumed); assay: FACS on REH cells
T1 construct: whole, on cells; Raji and CA46: relatively high expression of CD22; REH: relatively medium expression; also called CD22 on cell membrane
Experimental: (§1) Raji cells (having a relatively high expression of CD22), CA46 cells (having a relatively high expression of CD22), and REH cells (having a relatively medium expression of CD22) were selected, and the cell binding ability of the antibodies was evaluated by curves of mean fluorescence intensity versus concentration obtained through FACS.

[6] = molecular target: T2, Biotinylated Human Siglec-2/CD22 Protein, Fc, Avitag (ACROBiosystems, SI2-H82F8) (human, UniProt P20273 20-687, biotinylated (Avitag)); assay: SPR (Biacore 8K), CD22-Fc-biotin on SA chip, antibody as analyte, 1:1 binding model
T2 construct: Bought reagent; also called CD22 antigen; CD22-Fc-biotinylated antigen; not shown: Fc tag of the bought protein; Avitag
Experimental: Following reagents and materials were mainly used: [0066] Antigen to be immobilized: CD22-Fc-biotinylated antigen: ACROBiosystems (ARCO)) SI2-H82F8; [0067] Antibodies to be tested: Anti-CD22 mAbs; [0068] Chip SA; [0069] Immobilization buffer: (1) 1 M NaCl/50 mM NaOH; [0070] (2) 1 M NaCl/50 mM NaOH/50% isopropanol; [0071] Running buffer: 1×HBS-EP buffer; [0072] Regeneration buffer: Glycine, pH 1.5.
Experimental steps were as follows: [0074] 1) A sensor chip SA was taken and its surface was cleaned with ultrapure water; and after dried under nitrogen, was inserted into the slot. The immobilization buffers (1) and (2) were added to the columns A1 and A2 in a 96 well plate, and 3.85 nM CD22-Fc-biotinylated antigen were added at 200 μL per well into corresponding wells in column A3, respectively. The program was set to immobilize the antigen, and the immobilization was stopped when delta RU of about 70 RU was achieved. [0075] 2) Program “binding test” was set, including association time of 250 s and dissociation time of 600 s, and a test was performed using HA22 mAb, a dissociation degree of 4-5% was shown. [0076] 3) The HA22 mAb was diluted to 1000 nM and subsequently to 100 nM, and further 2-fold diluted starting from 100 nM for 8 times, at a final volume of about 250 μL per well. The program was set up to detect the binding capacity of that antibody No. 1 to the antigen, with association time of 250 s and dissociation time of 600 s. […] [0077] 4) All the antibodies, i.e., mAb-1 to mAb-6, were diluted to 1000 nM and subsequently to 100 nM, and further 2-fold diluted starting from 100 nM for 8 times, at a final volume of about 250 μL per well. The same program as that in step 3 was set up to detect affinity in batches. Results were analyzed using Biacore 8K evaluation.

[7] = molecular target: T1, CD22 on the cell membrane of …; assay: FACS on CA46 cells
Experimental: as §1

[8] = molecular target: T2, Biotinylated Human Siglec-2/CD22 …; assay: ELISA, plate coated with CD22-Fc antigen, anti-human Fd-HRP
Experimental: ELISA plates were coated with 200 ng/mL CD22 antigen (Biotinylated Human Siglec-2/CD22 Protein, Fc, Avitag™, ACROBiosystems (ARCO)) at 100 μl per well, at 4° C. overnight. Next day, the plates were washed with PBST, then blocked by the added blocking buffer (PBST+3% milk) at 37° C. for 1-2 hours, and then washed again with PBST.
After incubation, the plates were washed with PBST. 100 μl of 1:10000 diluted secondary antibody (Mouse anti-human IgG Fd secondary antibody, HRP; REF: SA5-10190, Invitrogen, USA) was added to each well of the ELISA plates which were then incubated at 37° C. for 1 hour. Thereafter, the plates were washed with PBST.
100 μl of TMB solution (TMB Single-Component Substrate solution, Cat #PR1200, Beijing Solarbio Science & Technology Co., Ltd.) was added to each well of the plates which were then incubated at room temperature for 15 minutes. Then 50 μl of stop buffer (ELISA stop buffer (10×), Cat #C1058, Beijing Solarbio Science & Technology Co., Ltd.) was added thereto, and the plates were shaken. Absorbance values at 450 nm were detected.

[9] = molecular target: T1, CD22 on the cell membrane of …; assay: FACS on Raji cells
Experimental: as §1

[10] = molecular target: T1, CD22 on the cell membrane of …; assay: FACS on CA46 cells; ambiguous fit, Top printed as (very wide)
Experimental: as §1

Work on Isotype control (antibody) yielded an EC50 [1] of 32.6 µg/mL, an EC50 [2] of 0.000154 µg/mL and an EC50 [3] of 4590 µg/mL. For the same molecule, the EC50 [4] was 8250 µg/mL.

B1: HA22 mAb (antibody, human IgG1, kappa, V domains shown)
VH: EVQLVESGGGLVKPGGSLKLSCAASGFAFSIYDMSWVRQTPEKCLEWVAYISSGGGTTYYPDTVKGRFTISRDNAKNTLYLQMSSLKSEDTAMYYCARHSGYGTHWGVLFAYWGQGTLVTVSA
VL: DIQMTQTTSSLSASLGDRVTISCRASQDISNYLNWYQQKPDGTVKLLIYYTSILHSGVPSRFSGSGSGTDYSLTISNLEQEDFATYFCQQGNTLPWTFGCGTKLEIKR
notes: also called positive antibody HA22 mAb
Work on B1 yielded an EC50 [5] of 0.172 µg/mL, a Kd [6] of 0.242 nM and a koff [6] of 8.93e-05 s⁻¹. For the same molecule, the kon [6] was 370000 M⁻¹ s⁻¹, the EC50 [7] was 0.221 µg/mL and the EC50 [8] was 0.0203 µg/mL. It also gave an EC50 [9] of 0.152 µg/mL.

B2: mAb-3 (antibody, human IgG1, kappa, V domains shown)
VH: B1 VH with K19R, T40A, E42G, T63S, D73E, T78S, S84N, L118M, A123S
VL: DIQMTQSTSTLSASVGDRVTITCRASQDISNYLNWYQQRPDGSVKLLIYYTSILHSGVPSRFSGSGSGTDYTLTISSLQDEDFATYFCQQGNTLPWTFGCGTKVEIKR
notes: Humanized IgG1/kappa antibody; also called V1 HC + V2 LC
In the case of B2, the Kd [6] is reported as 0.713 nM, the koff [6] is reported as 0.000404 s⁻¹ and the kon [6] is reported as 567000 M⁻¹ s⁻¹. It also gave an EC50 [7] of 1.61 µg/mL and an EC50 [8] of 0.0139 µg/mL.

B3: mAb-1 (antibody, human IgG1, kappa, V domains shown)
VH: B1 VH with K19R, T63S, D73E, T78S, S84N, L118M, A123S
VL: B1 VL
notes: Reconstructed IgG1/kappa antibody, humanized heavy chain with HA22 light chain; also called V2 HC + HA22 LC
B3 was tested, and the EC50 [5] was 0.812 µg/mL, the Kd [6] was 0.604 nM and the koff [6] was 0.000262 s⁻¹. The kon [6] was 434000 M⁻¹ s⁻¹, the EC50 [7] was 0.521 µg/mL and the EC50 [8] was 0.0154 µg/mL. The EC50 [9] was 0.152 µg/mL.

B4: mAb-2 (antibody, human IgG1, kappa, V domains shown)
VH: B1 VH with K19R, T63S, D73E, T78S, S84N, L118M, A123S
VL: B2 VL
notes: Humanized IgG1/kappa antibody; also called V2 HC + V2 LC
Molecule B4 has a Kd [6] of 0.47 nM, a koff [6] of 0.000177 s⁻¹ and a kon [6] of 376000 M⁻¹ s⁻¹. For the same molecule, the EC50 [7] was 0.23 µg/mL, the EC50 [8] was 0.00906 µg/mL and the EC50 [9] was 0.276 µg/mL.

B5: mAb-4 (antibody, human IgG1, kappa, V domains shown)
VH: B1 VH with K19R, T40A, E42G, T63S, D73E, T78S, S84N, L118M, A123S
VL: B2 VL with T8P, Y36F, D41G, G42Q, V44P, K45R, D80P, F87Y
notes: Humanized IgG1/kappa antibody; also called V1 HC + V4 LC
Molecule B5 has a Kd [6] of 0.145 nM, a koff [6] of 9.91e-05 s⁻¹ and a kon [6] of 685000 M⁻¹ s⁻¹. For the same molecule, the EC50 [7] was 0.152 µg/mL, the EC50 [8] was 0.0139 µg/mL and the EC50 [9] was 0.206 µg/mL.

B6: mAb-5 (antibody, human IgG1, kappa, V domains shown)
VH: EVQLVESGGGLVKPGGSLRLSCAASGFAFSIYDMSWIRQAPGKCLEWVAYISSGGGTTYYPGSVKGRFTISRENAKNSLYLQMNSLRSEDTAVYYCARHSGYGTHWGVLFAYWGQGTMVTVSS
VL: B2 VL with T8P, Y36F, D41G, G42Q, V44P, K45R, D80P, F87Y
notes: Humanized IgG1/kappa antibody; also called V5 HC + V4 LC
Molecule B6 has an EC50 [10] of about 20200 µg/mL, a Kd [6] of 0.382 nM and a koff [6] of 0.000411 s⁻¹. For the same molecule, the kon [6] was 1.08e+06 M⁻¹ s⁻¹ and the EC50 [8] was 0.0163 µg/mL.

B7: mAb-6 (antibody, human IgG1, kappa, V domains shown)
VH: B6 VH with S88A, E89G
VL: B2 VL with T8P, Y36F, D41G, G42Q, V44P, K45R, D80P, F87Y
notes: Humanized IgG1/kappa antibody; also called V4 HC + V4 LC
For B7, the Kd [6] was 0.315 nM, the koff [6] was 0.00022 s⁻¹ and the kon [6] was 699000 M⁻¹ s⁻¹. The EC50 [7] was 2.75 µg/mL and the EC50 [8] was 0.0104 µg/mL.
